Test results from patent US20250339531A1, “DUX4 POLYPEPTIDES AND NUCLEIC ACIDS FOR TREATING INFLAMMATORY AND AUTOIMMUNE CONDITIONS” (Fred Hutchinson Cancer Center, priority 2021, published 2025).

Experiments:
[1] = target: 14-3-3 protein sigma (Homo sapiens) (UniProt P31947); test: anti-FLAG co-IP LC-MS, exp 4, +Dox +IFNG
Desmin (Homo sapiens) [2] = target: Desmin (Homo sapiens) (UniProt P17661); test: anti-FLAG co-IP LC-MS, exp 4, +Dox +IFNG
[3] = target: AP-2 complex subunit mu (Homo sapiens) (UniProt E9PFW3); test: anti-FLAG co-IP LC-MS, exp 4, +Dox +IFNG
[4] = target: 60S ribosomal protein L8 (Homo sapiens) (UniProt P62917); test: anti-FLAG co-IP LC-MS, exp 4, +Dox +IFNG
[5] = target: Src substrate cortactin (Homo sapiens) (UniProt Q14247); test: anti-FLAG co-IP LC-MS, exp 4, +Dox +IFNG
Sequence of Src substrate cortactin (Homo sapiens) (Q14247 whole entry): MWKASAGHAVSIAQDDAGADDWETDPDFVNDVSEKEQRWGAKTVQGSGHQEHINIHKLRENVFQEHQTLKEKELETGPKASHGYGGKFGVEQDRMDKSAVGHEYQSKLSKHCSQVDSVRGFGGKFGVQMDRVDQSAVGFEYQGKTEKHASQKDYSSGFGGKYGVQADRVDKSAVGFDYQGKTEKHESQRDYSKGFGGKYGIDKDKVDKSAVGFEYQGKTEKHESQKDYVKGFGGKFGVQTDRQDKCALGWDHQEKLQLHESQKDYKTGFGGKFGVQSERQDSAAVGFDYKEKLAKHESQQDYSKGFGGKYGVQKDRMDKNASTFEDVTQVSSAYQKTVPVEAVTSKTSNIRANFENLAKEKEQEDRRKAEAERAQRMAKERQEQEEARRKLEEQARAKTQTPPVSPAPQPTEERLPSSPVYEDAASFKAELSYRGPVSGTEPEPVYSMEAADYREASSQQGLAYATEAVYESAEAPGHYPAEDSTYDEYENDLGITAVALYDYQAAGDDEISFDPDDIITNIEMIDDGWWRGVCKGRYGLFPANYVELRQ

[6] = target: Protease serine 2 preproprotein (Homo sapiens) (UniProt A6XMV9); test: anti-FLAG co-IP LC-MS, exp 4, +Dox +IFNG
Sequence of Protease serine 2 preproprotein (Homo sapiens) (A6XMV9 entry or part of it limits assumed, form in doubt): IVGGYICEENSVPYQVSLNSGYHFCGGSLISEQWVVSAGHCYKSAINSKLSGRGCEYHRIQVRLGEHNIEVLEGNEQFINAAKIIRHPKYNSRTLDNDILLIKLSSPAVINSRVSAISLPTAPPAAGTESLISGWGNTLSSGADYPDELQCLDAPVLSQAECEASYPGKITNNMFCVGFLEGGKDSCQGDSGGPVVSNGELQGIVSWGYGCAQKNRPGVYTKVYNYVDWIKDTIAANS

Plectin (Homo sapiens) [7] = target: Plectin (Homo sapiens) (UniProt Q15149); test: anti-FLAG co-IP LC-MS, exp 4, +Dox +IFNG
[8] = target: Endoplasmic reticulum chaperone BiP (Homo sapiens) (UniProt P11021); test: anti-FLAG co-IP LC-MS, exp 4, +Dox +IFNG
Sequence of Endoplasmic reticulum chaperone BiP (Homo sapiens) (P11021 19-654 limits assumed): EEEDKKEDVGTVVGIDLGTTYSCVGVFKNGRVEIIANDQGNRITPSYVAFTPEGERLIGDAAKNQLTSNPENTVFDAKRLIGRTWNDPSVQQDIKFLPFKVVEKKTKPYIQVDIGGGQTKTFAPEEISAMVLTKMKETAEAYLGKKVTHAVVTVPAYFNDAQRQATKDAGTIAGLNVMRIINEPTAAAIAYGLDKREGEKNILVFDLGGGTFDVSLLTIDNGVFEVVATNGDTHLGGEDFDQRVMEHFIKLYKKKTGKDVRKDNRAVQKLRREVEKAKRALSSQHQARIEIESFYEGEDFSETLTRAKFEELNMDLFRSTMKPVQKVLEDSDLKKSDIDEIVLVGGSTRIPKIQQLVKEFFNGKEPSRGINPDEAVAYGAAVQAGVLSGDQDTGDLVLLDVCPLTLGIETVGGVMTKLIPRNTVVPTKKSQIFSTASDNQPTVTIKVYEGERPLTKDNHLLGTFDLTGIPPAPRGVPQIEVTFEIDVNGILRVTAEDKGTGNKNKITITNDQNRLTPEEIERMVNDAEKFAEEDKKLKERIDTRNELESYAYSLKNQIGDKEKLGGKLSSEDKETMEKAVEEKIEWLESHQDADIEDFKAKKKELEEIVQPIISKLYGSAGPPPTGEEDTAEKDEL

[9] = target: Junctional sarcoplasmic reticulum protein 1 (Homo sapiens) (UniProt Q96MG2); test: anti-FLAG co-IP LC-MS, exp 4, +Dox +IFNG
[10] = target: Prolyl 4-hydroxylase subunit alpha-1 (Homo sapiens) (UniProt P13674); test: anti-FLAG co-IP LC-MS, exp 4, +Dox +IFNG
Sequence of Prolyl 4-hydroxylase subunit alpha-1 (Homo sapiens) (P13674 18-534 limits assumed): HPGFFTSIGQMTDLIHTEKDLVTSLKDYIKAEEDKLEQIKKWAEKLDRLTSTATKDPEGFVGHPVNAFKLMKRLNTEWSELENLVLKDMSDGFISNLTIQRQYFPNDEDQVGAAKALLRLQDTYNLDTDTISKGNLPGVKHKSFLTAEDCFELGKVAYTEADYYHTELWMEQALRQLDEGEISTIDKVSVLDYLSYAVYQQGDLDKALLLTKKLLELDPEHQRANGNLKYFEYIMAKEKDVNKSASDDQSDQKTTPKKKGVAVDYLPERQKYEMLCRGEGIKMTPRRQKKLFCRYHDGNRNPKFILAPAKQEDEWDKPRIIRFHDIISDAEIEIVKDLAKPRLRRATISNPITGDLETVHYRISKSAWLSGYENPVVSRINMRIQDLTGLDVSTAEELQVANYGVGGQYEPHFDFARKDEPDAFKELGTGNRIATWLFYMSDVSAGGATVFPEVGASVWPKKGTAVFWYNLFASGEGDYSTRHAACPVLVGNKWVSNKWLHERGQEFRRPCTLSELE

[11] = target: Tubulin beta-4B chain (Homo sapiens) (UniProt P68371); test: anti-FLAG co-IP LC-MS, exp 4, +Dox +IFNG
Sequence of Tubulin beta-4B chain (Homo sapiens) (P68371 whole entry): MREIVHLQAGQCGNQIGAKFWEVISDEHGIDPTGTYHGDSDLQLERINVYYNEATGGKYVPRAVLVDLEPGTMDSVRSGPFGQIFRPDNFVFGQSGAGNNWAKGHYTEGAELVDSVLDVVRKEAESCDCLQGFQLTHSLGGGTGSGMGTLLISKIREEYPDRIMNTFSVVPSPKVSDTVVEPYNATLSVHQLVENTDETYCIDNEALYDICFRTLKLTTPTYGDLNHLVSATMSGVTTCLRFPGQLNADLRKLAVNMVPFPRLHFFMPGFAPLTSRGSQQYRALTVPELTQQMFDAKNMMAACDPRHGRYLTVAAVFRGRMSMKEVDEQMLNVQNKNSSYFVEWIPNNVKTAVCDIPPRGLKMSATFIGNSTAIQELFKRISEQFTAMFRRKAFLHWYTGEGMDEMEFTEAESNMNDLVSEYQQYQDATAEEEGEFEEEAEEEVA

[12] = target: 40S ribosomal protein S3a (Homo sapiens) (UniProt P61247); test: anti-FLAG co-IP LC-MS, exp 4, +Dox +IFNG
[13] = target: Prelamin-A/C (Homo sapiens) (UniProt P02545); test: anti-FLAG co-IP LC-MS, exp 4, +Dox +IFNG
[14] = target: Tubulin alpha-4A chain (Homo sapiens) (UniProt P68366); test: anti-FLAG co-IP LC-MS, exp 3, +Dox
Filamin-C (Homo sapiens) = Filamin-C (Homo sapiens) (UniProt Q14315); test: anti-FLAG co-IP LC-MS, exp 3, +Dox
Desmin (Homo sapiens) [15] = target: Desmin (Homo sapiens) (UniProt P17661); test: anti-FLAG co-IP LC-MS, exp 3, +Dox
[16] = target: 60S ribosomal protein L8 (Homo sapiens) (UniProt P62917); test: anti-FLAG co-IP LC-MS, exp 3, +Dox
[17] = target: S-adenosylhomocysteine hydrolase-like protein 1 (Homo sapiens) (UniProt O43865); test: anti-FLAG co-IP LC-MS, exp 3, +Dox
[18] = target: Actin-related protein 3 (Homo sapiens) (UniProt P61158); test: anti-FLAG co-IP LC-MS, exp 3, +Dox
Plectin (Homo sapiens) [19] = target: Plectin (Homo sapiens) (UniProt Q15149); test: anti-FLAG co-IP LC-MS, exp 3, +Dox
[20] = target: Tubulin beta-2A chain (Homo sapiens) (UniProt Q13885); test: anti-FLAG co-IP LC-MS, exp 3, +Dox
Sequence of Tubulin beta-2A chain (Homo sapiens) (Q13885 whole entry): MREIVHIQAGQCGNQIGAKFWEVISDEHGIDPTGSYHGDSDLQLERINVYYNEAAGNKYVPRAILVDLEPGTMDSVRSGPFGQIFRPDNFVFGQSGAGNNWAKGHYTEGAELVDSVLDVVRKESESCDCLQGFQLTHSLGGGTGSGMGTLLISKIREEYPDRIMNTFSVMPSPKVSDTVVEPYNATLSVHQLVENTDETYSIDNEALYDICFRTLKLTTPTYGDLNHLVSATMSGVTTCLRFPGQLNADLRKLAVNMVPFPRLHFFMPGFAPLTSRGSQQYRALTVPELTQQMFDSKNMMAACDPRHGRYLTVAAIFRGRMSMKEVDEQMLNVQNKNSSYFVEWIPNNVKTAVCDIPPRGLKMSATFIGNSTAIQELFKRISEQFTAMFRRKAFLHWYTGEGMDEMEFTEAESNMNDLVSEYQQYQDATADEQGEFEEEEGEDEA

[21] = target: Elongation factor 1-gamma (Homo sapiens) (UniProt P26641); test: anti-FLAG co-IP LC-MS, exp 3, +Dox
[22] = target: Probable ATP-dependent RNA helicase DDX6 (Homo sapiens) (UniProt P26196); test: anti-FLAG co-IP LC-MS, exp 3, +Dox
[23] = target: Endoplasmic reticulum chaperone BiP (Homo sapiens) (UniProt P11021); test: anti-FLAG co-IP LC-MS, exp 3, +Dox
Vimentin (Homo sapiens) = Vimentin (Homo sapiens) (UniProt P08670); test: anti-FLAG co-IP LC-MS, exp 3, +Dox
[24] = target: Cytoskeleton-associated protein 4 (Homo sapiens) (UniProt Q07065); test: anti-FLAG co-IP LC-MS, exp 3, +Dox
Sequence of Cytoskeleton-associated protein 4 (Homo sapiens) (Q07065 whole entry): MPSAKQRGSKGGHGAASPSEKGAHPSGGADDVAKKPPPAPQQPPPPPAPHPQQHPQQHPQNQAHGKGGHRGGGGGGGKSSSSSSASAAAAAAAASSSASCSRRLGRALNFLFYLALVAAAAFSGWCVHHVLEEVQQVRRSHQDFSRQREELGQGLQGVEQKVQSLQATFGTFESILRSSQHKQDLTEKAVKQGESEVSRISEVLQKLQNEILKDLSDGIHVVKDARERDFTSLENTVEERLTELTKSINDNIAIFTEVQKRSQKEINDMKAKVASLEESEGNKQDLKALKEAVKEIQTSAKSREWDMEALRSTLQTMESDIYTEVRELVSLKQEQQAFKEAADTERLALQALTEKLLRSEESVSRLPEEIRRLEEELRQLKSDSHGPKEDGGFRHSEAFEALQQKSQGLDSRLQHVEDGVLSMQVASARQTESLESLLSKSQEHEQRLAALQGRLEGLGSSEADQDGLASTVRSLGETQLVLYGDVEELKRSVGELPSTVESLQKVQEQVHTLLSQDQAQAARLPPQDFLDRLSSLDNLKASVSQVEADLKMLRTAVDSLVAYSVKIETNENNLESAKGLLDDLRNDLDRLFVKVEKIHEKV

[25] = target: Heterogeneous nuclear ribonucleoprotein K (Homo sapiens) (UniProt P61978); test: anti-FLAG co-IP LC-MS, exp 3, +Dox
[26] = target: Heat shock protein HSP 90-beta (Homo sapiens) (UniProt P08238); test: anti-FLAG co-IP LC-MS, exp 3, +Dox
Drebrin (Homo sapiens) = Drebrin (Homo sapiens) (UniProt Q16643); test: anti-FLAG co-IP LC-MS, exp 3, +Dox
[27] = target: Plasminogen activator inhibitor 1 RNA-binding protein (Homo sapiens) (UniProt Q8NC51); test: anti-FLAG co-IP LC-MS, exp 3, +Dox
Caprin-1 (Homo sapiens) = Caprin-1 (Homo sapiens) (UniProt Q14444); test: anti-FLAG co-IP LC-MS, exp 3, +Dox
[28] = target: Prolyl 4-hydroxylase subunit alpha-1 (Homo sapiens) (UniProt P13674); test: anti-FLAG co-IP LC-MS, exp 3, +Dox
[29] = target: 60S ribosomal protein L3 (Homo sapiens) (UniProt P39023); test: anti-FLAG co-IP LC-MS, exp 3, +Dox
[30] = target: Ribosome-binding protein 1 (Homo sapiens) (UniProt Q9P2E9); test: anti-FLAG co-IP LC-MS, exp 3, +Dox
[31] = target: Tubulin beta-4B chain (Homo sapiens) (UniProt P68371); test: anti-FLAG co-IP LC-MS, exp 3, +Dox
[32] = target: Nucleophosmin (Homo sapiens) (UniProt P06748); test: anti-FLAG co-IP LC-MS, exp 3, +Dox
Sequence of Nucleophosmin (Homo sapiens) (P06748 whole entry): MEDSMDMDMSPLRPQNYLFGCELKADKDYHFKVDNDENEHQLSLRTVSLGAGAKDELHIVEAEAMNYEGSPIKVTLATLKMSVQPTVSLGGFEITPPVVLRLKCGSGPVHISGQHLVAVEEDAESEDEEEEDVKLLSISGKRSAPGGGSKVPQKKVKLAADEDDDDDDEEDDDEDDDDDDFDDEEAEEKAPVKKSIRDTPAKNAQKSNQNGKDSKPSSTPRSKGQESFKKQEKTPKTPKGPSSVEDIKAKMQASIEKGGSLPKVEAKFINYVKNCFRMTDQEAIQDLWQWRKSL

[33] = target: Protein disulfide-isomerase (Homo sapiens) (UniProt P07237); test: anti-FLAG co-IP LC-MS, exp 3, +Dox
[34] = target: Ribonuclease inhibitor (Homo sapiens) (UniProt P13489); test: anti-FLAG co-IP LC-MS, exp 3, +Dox
Sequence of Ribonuclease inhibitor (Homo sapiens) (P13489 2-461 limits assumed): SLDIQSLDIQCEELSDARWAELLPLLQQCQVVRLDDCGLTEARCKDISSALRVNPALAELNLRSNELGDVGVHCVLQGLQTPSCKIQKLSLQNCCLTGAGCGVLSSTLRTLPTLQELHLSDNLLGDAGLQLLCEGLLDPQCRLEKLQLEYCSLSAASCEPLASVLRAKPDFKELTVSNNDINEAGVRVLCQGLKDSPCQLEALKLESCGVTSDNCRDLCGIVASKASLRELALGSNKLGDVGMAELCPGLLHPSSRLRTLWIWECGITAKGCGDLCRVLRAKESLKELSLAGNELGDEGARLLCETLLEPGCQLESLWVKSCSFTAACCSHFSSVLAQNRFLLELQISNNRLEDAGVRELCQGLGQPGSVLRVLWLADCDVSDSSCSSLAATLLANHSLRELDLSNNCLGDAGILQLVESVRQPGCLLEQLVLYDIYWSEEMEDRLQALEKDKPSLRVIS

[35] = target: Elongation factor 1-alpha 1 (Homo sapiens) (UniProt P68104); test: anti-FLAG co-IP LC-MS, exp 3, +Dox

Sequence of Desmin (Homo sapiens) (P17661 2-470 limits assumed): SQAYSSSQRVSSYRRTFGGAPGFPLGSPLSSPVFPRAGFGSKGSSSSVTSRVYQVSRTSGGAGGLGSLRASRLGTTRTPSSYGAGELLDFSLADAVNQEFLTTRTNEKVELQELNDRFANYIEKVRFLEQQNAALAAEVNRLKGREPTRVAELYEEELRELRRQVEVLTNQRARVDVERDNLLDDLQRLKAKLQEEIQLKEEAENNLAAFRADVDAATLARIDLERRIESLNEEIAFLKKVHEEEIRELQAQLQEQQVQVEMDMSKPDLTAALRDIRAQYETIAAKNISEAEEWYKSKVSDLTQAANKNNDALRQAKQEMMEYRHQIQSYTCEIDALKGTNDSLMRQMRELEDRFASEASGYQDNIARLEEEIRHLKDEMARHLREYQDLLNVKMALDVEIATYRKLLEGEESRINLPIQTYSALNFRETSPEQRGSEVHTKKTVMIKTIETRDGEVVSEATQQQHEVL
Sequence of 14-3-3 protein sigma (Homo sapiens) (P31947 whole entry): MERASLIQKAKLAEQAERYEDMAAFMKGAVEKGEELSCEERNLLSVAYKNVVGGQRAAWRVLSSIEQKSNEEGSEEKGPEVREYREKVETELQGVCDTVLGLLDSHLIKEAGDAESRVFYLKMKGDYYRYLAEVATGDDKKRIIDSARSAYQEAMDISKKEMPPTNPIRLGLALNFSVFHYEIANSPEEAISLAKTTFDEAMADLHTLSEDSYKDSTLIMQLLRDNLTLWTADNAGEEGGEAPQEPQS

i3XFLAG-NLS-CTDaa154-424
PSMs [1]: 6 PSMs
PSMs (Desmin (Homo sapiens) [2]): 12 PSMs
PSMs [3]: 3 PSMs
PSMs [4]: 2 PSMs
PSMs [5]: 5 PSMs
PSMs [6]: 2 PSMs
PSMs (Plectin (Homo sapiens) [7]): 7 PSMs
PSMs [8]: 44 PSMs
PSMs [9]: 3 PSMs
PSMs [10]: 9 PSMs
PSMs [11]: 100 PSMs
PSMs [12]: 2 PSMs
PSMs [13]: 6 PSMs
PSMs [14]: 14 PSMs
PSMs (Filamin-C (Homo sapiens)): 2 PSMs
PSMs (Desmin (Homo sapiens) [15]): 9 PSMs
PSMs [16]: 3 PSMs
PSMs [17]: 7 PSMs
PSMs [18]: 5 PSMs
PSMs (Plectin (Homo sapiens) [19]): 5 PSMs
PSMs [20]: 35 PSMs
PSMs [21]: 3 PSMs
PSMs [22]: 2 PSMs
PSMs [23]: 22 PSMs
PSMs (Vimentin (Homo sapiens)): 42 PSMs
PSMs [24]: 30 PSMs
PSMs [25]: 2 PSMs
PSMs [26]: 2 PSMs
PSMs (Drebrin (Homo sapiens)): 3 PSMs
PSMs [27]: 2 PSMs
PSMs (Caprin-1 (Homo sapiens)): 5 PSMs
PSMs [28]: 3 PSMs
PSMs [29]: 3 PSMs
PSMs [30]: 24 PSMs
PSMs [31]: 42 PSMs
PSMs [32]: 2 PSMs
PSMs [33]: 3 PSMs
PSMs [34]: 3 PSMs
PSMs [35]: 9 PSMs
